Source: PMC6972935
Like-named read-outs stand apart in the source and are kept apart here.

Tests used:
[1] = target: KS-PPT di-domain construct of the yeast FAS α-subunit (S. cerevisiae); test: SEC; Superdex 200 Increase 30/100 GL column with calibration curve; KS-PPT di-domain construct
[2] = target: KS-PPT di-domain construct of the yeast FAS α-subunit (S. cerevisiae); test: as above; remark: listed apart in the source
[3] = target: α_ΔMPT-ACP construct of the yeast FAS α-subunit (KS-PPT elongated N-terminally by DM1, DM2 and KR) (S. cerevisiae); test: SEC; Superose 6 Increase 30/100 GL column, TRIS-HCl buffer N100; protein preparations from purifications under native and denaturing conditions (refolded)

| stoichiometry N [1] | stoichiometry N [2] | stoichiometry N [3] | Substance |
| --- | --- | --- | --- |
| 2.5 | 2 | – | KS-PPT di-domain construct of the yeast FAS α-subunit (domain or fragment) |
| – | – | 2 | α_ΔMPT-ACP construct of the yeast FAS α-subunit (KS-PPT elongated N-terminally by DM1, DM2 and KR) (domain or fragment) |
